From PMC5278647 (Biochemistry, 2016)

Target: T1, his-tagged F110A variant of human ferrochelatase (FECH), recombinant from E. coli (human, UniProt P22830 55-423, F110A)
T1 sequence (looked up): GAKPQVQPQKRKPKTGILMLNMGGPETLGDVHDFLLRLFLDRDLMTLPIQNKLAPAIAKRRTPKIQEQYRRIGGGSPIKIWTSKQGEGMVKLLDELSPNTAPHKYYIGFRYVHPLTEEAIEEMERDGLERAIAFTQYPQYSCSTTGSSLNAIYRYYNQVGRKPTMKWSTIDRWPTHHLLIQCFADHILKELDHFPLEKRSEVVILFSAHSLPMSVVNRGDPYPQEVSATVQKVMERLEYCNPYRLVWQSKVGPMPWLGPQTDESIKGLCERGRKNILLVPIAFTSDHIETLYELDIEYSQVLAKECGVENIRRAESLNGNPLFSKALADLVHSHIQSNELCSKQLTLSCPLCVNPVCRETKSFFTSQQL
Experiment: pull-down

B1: non-tagged full length human PGRMC1, recombinant from E. coli (natural protein)
chain: not shown
fold of PGRMC1 recovered (against wild-type FECH): > 2 fold
